The text below walks through data of patent publication US20260193375A1 (NORMUNITY, published 2026).

For one experiment, the target named is cyLY6K-mFc (cynomolgus monkey). As to the kind of experiment: SPR (Carterra LSA), mAb captured on anti-human IgG-Fc, antigen as analyte.
The next experiment deals with T1, rLY6K-mFc (rat).
T1 chain: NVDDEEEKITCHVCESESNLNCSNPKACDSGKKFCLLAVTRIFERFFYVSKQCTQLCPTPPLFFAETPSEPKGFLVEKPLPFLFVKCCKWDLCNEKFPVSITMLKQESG
The description is as above.

In a further experiment the target is T2, hLY6K-mFc (human, UniProt Q17RY6 18-138).
T2 construct: not shown: mFc
T2 sequence: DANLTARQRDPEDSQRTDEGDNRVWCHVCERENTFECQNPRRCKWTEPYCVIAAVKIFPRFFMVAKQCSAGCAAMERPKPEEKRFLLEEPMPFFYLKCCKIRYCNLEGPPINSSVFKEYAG
The description is as above.

Experiment [1] has as its target T3, cynomolgus monkey LY6K (R&D Systems) (cynomolgus monkey).
T3 construct: also called cyLY6K
As to the kind of experiment: ELISA, coated antigen, IgG1 at 10 ug/ml. A general note: ELISA stands for enzyme-linked immunosorbent assay.

For a further experiment, the target named is T4, rat LY6K (R&D Systems) (rat).
T4 construct: also called rLY6K
Briefly: ELISA, coated antigen, IgG1 at 10 ug/ml.

The target of experiment [2] is T5, human LY6E (R&D Systems) (human, UniProt Q16553 21-101, limits assumed).
T5 construct: also called hLY6E
T5 sequence (looked up): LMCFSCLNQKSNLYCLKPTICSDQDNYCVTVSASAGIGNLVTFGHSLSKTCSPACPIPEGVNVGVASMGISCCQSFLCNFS
As to the kind of experiment: ELISA, coated antigen, IgG1 at 10 ug/ml.

Another experiment concerns the target T6, hLY6K-his (human, UniProt Q17RY6 18-138, limits assumed).
T6 construct: not shown: his tag
T6 sequence: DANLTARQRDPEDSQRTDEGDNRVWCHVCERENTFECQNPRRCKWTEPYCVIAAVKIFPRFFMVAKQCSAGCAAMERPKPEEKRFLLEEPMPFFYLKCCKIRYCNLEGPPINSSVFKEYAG
As to the kind of experiment: SPR (Carterra LSA), mAb captured on anti-human IgG-Fc, antigen as analyte.

In experiment [3] the target is T7, recombinant human LY6K (Wuxi) (human, UniProt Q17RY6 18-138).
T7 construct: Limits of the construct not clearly stated; also called Human LY6K (Wuxi LY^KGLY138(1-38TR)_8His)
T7 sequence: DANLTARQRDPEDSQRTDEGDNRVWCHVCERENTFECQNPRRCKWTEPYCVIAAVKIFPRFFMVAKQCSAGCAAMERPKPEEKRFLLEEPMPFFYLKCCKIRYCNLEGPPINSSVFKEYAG
Briefly: capture ELISA (MSD): antibody coated as capture at 2 µg/mL, recombinant human LY6K titrated, sulfo-tagged polyclonal anti-hLY6K (AF6648) for detection; EC50 is the LY6K concentration.

Experiment [4] deals with T7, recombinant human LY6K (Wuxi). Briefly: ELISA, LY6K coated at 2 ug/mL, HRP-labelled mAb titrated.
Another experiment addresses T8, Ly6H.
T8 chain: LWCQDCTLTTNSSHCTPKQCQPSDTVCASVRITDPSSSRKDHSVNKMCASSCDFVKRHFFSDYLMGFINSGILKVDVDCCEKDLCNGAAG
As to the kind of experiment: ELISA, antigen coated on the plate, antibody as human IgG1, anti-human F(ab)2 HRPO.

The target in another experiment is T9, Ly6D.
T9 chain: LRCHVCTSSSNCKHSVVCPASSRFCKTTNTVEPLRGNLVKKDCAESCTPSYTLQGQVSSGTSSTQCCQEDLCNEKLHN
The description is as above.

In experiment [5] the target is T5, human LY6E (R&D Systems). Described as above.
The next experiment deals with T10, Human LY6K (R&D Systems) (human, UniProt Q17RY6 18-138, limits assumed).
T10 construct: Bought from R&D Systems, coated on ELISA plates; also called hLY6K
T10 sequence: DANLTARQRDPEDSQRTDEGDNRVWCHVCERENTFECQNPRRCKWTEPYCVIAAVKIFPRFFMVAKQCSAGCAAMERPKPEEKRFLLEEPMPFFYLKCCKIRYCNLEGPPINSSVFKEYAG
Briefly: ELISA, coated antigen, IgG1 at 10 ug/ml.

B1: anti-LY6K antibody 3047 (antibody, V domains shown)
VH: EVQLVESGGGLVQPGGSLRLSCAASGFTFSSYSMNWVRQAPGKGLEWVSGINWNGGSTGYADSVKGRFTISRDNAKNSLYLQMNSLRAEDTALYYCARGRLFDYWGQGTLVTVSS
VL: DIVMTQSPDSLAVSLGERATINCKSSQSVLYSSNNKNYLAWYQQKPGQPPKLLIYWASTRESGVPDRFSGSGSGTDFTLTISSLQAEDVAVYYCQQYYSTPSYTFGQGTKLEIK
The Kd is the free concentration of one partner at which half of the binding sites on the other are occupied at equilibrium, for simple one-to-one binding. On to B1, for which the dissociation constant Kd with cyLY6K-mFc stood at 21.6 µM; with rLY6K-mFc it was 129 nM; with hLY6K-mFc, 2720 nM. Moreover, the “% of maximum of commercial anti-LY6K mAb on human LY6K” value in experiment [1] worked out at 3%; with rat LY6K (R&D Systems), 1.5%; with human LY6E (R&D Systems) [2] it was 1.7%.

B2: anti-LY6K antibody 3082 (antibody, V domains shown)
VH: EVQLVESGGGLVKPGGSLRLSCAASGFTFSSSSMNWVRQAPGKGLEWVSSISRSSYYIYYADSVEGRFTISRDNAKNSLYLQMNSLRAEDTAVYYCAKIGSSSEGVEDYYYYYYMDVWGKGTTVTVSS
VL: DIQMTQSPSSLSASVGDRVTITCRASQNINSYLNWYQQKPGKAPKLLIYAASSLQSGVPSRFSGSGSGTDFTLTISSLQPEDFATYYCHQSYSTPLTFGGGTKVEIK
A word on the EC50: it is the concentration needed to bring the measured effect to its halfway point. As to B2, the equilibrium dissociation constant (Kd) with cyLY6K-mFc was determined as 0.000103 µM; with rLY6K-mFc, 240 nM; with hLY6K-his, 2.06 nM; with hLY6K-mFc, 0.0444 nM. For the same molecule, the figures for the EC50 in [3] and in [4] were 0.0958 µg/mL and 4.59 nM, respectively. Moreover, the binding result with Ly6H, with Ly6D and in the experiment with human LY6E (R&D Systems) [5] was “no binding (tested: 10 µg/ml)” throughout. Also, the “% of maximum of commercial anti-LY6K mAb on human LY6K” value with Human LY6K (R&D Systems) is 87.2%; in experiment [1], 95.2%; with rat LY6K (R&D Systems), -0.5%; with human LY6E (R&D Systems) [2], 2.1%.
